Stoichiometry N data for one substance are collected here from paper PMC11033290.

The target in this experiment is Recombinant MDP1 (Mycobacterial DNA-binding protein 1) of M. tuberculosis produced in Escherichia coli (Mycobacterium tuberculosis) (UniProt P9WMK7). The experiment is described as follows: cross-linking; glutaraldehyde 0.2%, room temperature, 30 min; 4 µM or 8 µM protein in 150-1500 mM NaCl; SDS-PAGE on a 4-15% gradient gel.

In general, stoichiometry N refers to the number of molecules, sites or subunits per partner or assembly. For the substance “Recombinant MDP1 (Mycobacterial DNA-binding protein 1) of M. tuberculosis produced in Escherichia coli (from UniProt P9WMK7 3-216) (natural protein)”, the stoichiometry N is 2.
